The text below walks through data of US20210009668A1 (ROCHE DIAGNOSTICS OPERATIONS, published 2021).

B1: parental anti-cTnT Fab fragment (wildtype TnT M-7 Fab, from antibody 12.1A11.11-7) (Fab, V domains shown)
VH: EVQLQQSGPELVKPGASVKMSCKASGYTFTDYYMKWVKQSHGKSLEWIGDINPNNGETFYNQKFKDKATLTVDKSSSTAYMQLNSLTSEDSAVYYCATRVFDYWGQGTTLTVSS
VL: DIVLTQSPASLAVSLGQRATISCKASQSVDYDGTSYMNWFQQKAGQPPKRLIYAASNLESGIPARFSGRGSGTDFALNIHPVEEEDAATYYCQQSNEDPYTFGGGTKLEIK
notes: also called wildtype Fab; TnT M-7 (wildtype) Fab
B2: anti-cTnT Fab mutant 11 (Y34I, F60W, V101Y) (Fab, V domains shown)
VH: EVQLQQSGPELVKPGASVKMSCKASGYTFTDYIMKWVKQSHGKSLEWIGDINPNNGETWYNQKFKDKATLTVDKSSSTAYMQLNSLTSEDSAVYYCATRYFDYWGQGTTLTVSS
VL: DIVLTQSPASLAVSLGQRATISCKASQSVDYDGTSYMNWFQQKAGQPPKRLIYAASNLESGIPARFSGRGSGTDFALNIHPVEEEDAATYYCQQSNEDPYTFGGGTKLEIK
notes: also called combination 11
B3: anti-cTnT Fab mutant 1 (Y34F) (Fab, V domains shown)
VH: EVQLQQSGPELVKPGASVKMSCKASGYTFTDYFMKWVKQSHGKSLEWIGDINPNNGETFYNQKFKDKATLTVDKSSSTAYMQLNSLTSEDSAVYYCATRVFDYWGQGTTLTVSS
VL: DIVLTQSPASLAVSLGQRATISCKASQSVDYDGTSYMNWFQQKAGQPPKRLIYAASNLESGIPARFSGRGSGTDFALNIHPVEEEDAATYYCQQSNEDPYTFGGGTKLEIK
notes: also called combination 1
B4: anti-cTnT Fab mutant 5 (Y34F, F60W, V101Y + Y104F) (Fab, V domains shown)
VH: EVQLQQSGPELVKPGASVKMSCKASGYTFTDYFMKWVKQSHGKSLEWIGDINPNNGETWYNQKFKDKATLTVDKSSSTAYMQLNSLTSEDSAVYYCATRYFDFWGQGTTLTVSS
VL: DIVLTQSPASLAVSLGQRATISCKASQSVDYDGTSYMNWFQQKAGQPPKRLIYAASNLESGIPARFSGRGSGTDFALNIHPVEEEDAATYYCQQSNEDPYTFGGGTKLEIK
notes: also called combination 5
B5: anti-cTnT Fab mutant 13 (Y34I, F60W, V101Y + Y104F) (Fab, V domains shown)
VH: EVQLQQSGPELVKPGASVKMSCKASGYTFTDYIMKWVKQSHGKSLEWIGDINPNNGETWYNQKFKDKATLTVDKSSSTAYMQLNSLTSEDSAVYYCATRYFDFWGQGTTLTVSS
VL: DIVLTQSPASLAVSLGQRATISCKASQSVDYDGTSYMNWFQQKAGQPPKRLIYAASNLESGIPARFSGRGSGTDFALNIHPVEEEDAATYYCQQSNEDPYTFGGGTKLEIK
notes: also called combination 13
B6: anti-cTnT Fab mutant 7 (Y34F, Y104F) (Fab, V domains shown)
VH: EVQLQQSGPELVKPGASVKMSCKASGYTFTDYFMKWVKQSHGKSLEWIGDINPNNGETFYNQKFKDKATLTVDKSSSTAYMQLNSLTSEDSAVYYCATRVFDFWGQGTTLTVSS
VL: DIVLTQSPASLAVSLGQRATISCKASQSVDYDGTSYMNWFQQKAGQPPKRLIYAASNLESGIPARFSGRGSGTDFALNIHPVEEEDAATYYCQQSNEDPYTFGGGTKLEIK
notes: also called combination 7
B7: anti-cTnT Fab mutant 12 (Y34I, F60W, Y104F) (Fab, V domains shown)
VH: EVQLQQSGPELVKPGASVKMSCKASGYTFTDYIMKWVKQSHGKSLEWIGDINPNNGETWYNQKFKDKATLTVDKSSSTAYMQLNSLTSEDSAVYYCATRVFDFWGQGTTLTVSS
VL: DIVLTQSPASLAVSLGQRATISCKASQSVDYDGTSYMNWFQQKAGQPPKRLIYAASNLESGIPARFSGRGSGTDFALNIHPVEEEDAATYYCQQSNEDPYTFGGGTKLEIK
notes: also called combination 12; combination "12"
B8: anti-cTnT Fab mutant 3 (Y34F, F60W, V101Y) (Fab, V domains shown)
VH: EVQLQQSGPELVKPGASVKMSCKASGYTFTDYFMKWVKQSHGKSLEWIGDINPNNGETWYNQKFKDKATLTVDKSSSTAYMQLNSLTSEDSAVYYCATRYFDYWGQGTTLTVSS
VL: DIVLTQSPASLAVSLGQRATISCKASQSVDYDGTSYMNWFQQKAGQPPKRLIYAASNLESGIPARFSGRGSGTDFALNIHPVEEEDAATYYCQQSNEDPYTFGGGTKLEIK
notes: also called combination 3
B9: anti-cTnT Fab mutant 2 (Y34F, F60W) (Fab, V domains shown)
VH: EVQLQQSGPELVKPGASVKMSCKASGYTFTDYFMKWVKQSHGKSLEWIGDINPNNGETWYNQKFKDKATLTVDKSSSTAYMQLNSLTSEDSAVYYCATRVFDYWGQGTTLTVSS
VL: DIVLTQSPASLAVSLGQRATISCKASQSVDYDGTSYMNWFQQKAGQPPKRLIYAASNLESGIPARFSGRGSGTDFALNIHPVEEEDAATYYCQQSNEDPYTFGGGTKLEIK
notes: also called combination 2
B10: anti-cTnT Fab mutant 9 (Y34I) (Fab, V domains shown)
VH: EVQLQQSGPELVKPGASVKMSCKASGYTFTDYIMKWVKQSHGKSLEWIGDINPNNGETFYNQKFKDKATLTVDKSSSTAYMQLNSLTSEDSAVYYCATRVFDYWGQGTTLTVSS
VL: DIVLTQSPASLAVSLGQRATISCKASQSVDYDGTSYMNWFQQKAGQPPKRLIYAASNLESGIPARFSGRGSGTDFALNIHPVEEEDAATYYCQQSNEDPYTFGGGTKLEIK
notes: also called combination 9
B11: anti-cTnT Fab mutant 8 (Y34F, V101Y + Y104F) (Fab, V domains shown)
VH: EVQLQQSGPELVKPGASVKMSCKASGYTFTDYFMKWVKQSHGKSLEWIGDINPNNGETFYNQKFKDKATLTVDKSSSTAYMQLNSLTSEDSAVYYCATRYFDFWGQGTTLTVSS
VL: DIVLTQSPASLAVSLGQRATISCKASQSVDYDGTSYMNWFQQKAGQPPKRLIYAASNLESGIPARFSGRGSGTDFALNIHPVEEEDAATYYCQQSNEDPYTFGGGTKLEIK
notes: also called combination 8
B12: anti-cTnT Fab mutant 4 (Y34F, F60W, Y104F) (Fab, V domains shown)
VH: EVQLQQSGPELVKPGASVKMSCKASGYTFTDYFMKWVKQSHGKSLEWIGDINPNNGETWYNQKFKDKATLTVDKSSSTAYMQLNSLTSEDSAVYYCATRVFDFWGQGTTLTVSS
VL: DIVLTQSPASLAVSLGQRATISCKASQSVDYDGTSYMNWFQQKAGQPPKRLIYAASNLESGIPARFSGRGSGTDFALNIHPVEEEDAATYYCQQSNEDPYTFGGGTKLEIK
notes: also called combination 4
B13: anti-cTnT Fab mutant 15 (Y34I, Y104F) (Fab, V domains shown)
VH: EVQLQQSGPELVKPGASVKMSCKASGYTFTDYIMKWVKQSHGKSLEWIGDINPNNGETFYNQKFKDKATLTVDKSSSTAYMQLNSLTSEDSAVYYCATRVFDFWGQGTTLTVSS
VL: DIVLTQSPASLAVSLGQRATISCKASQSVDYDGTSYMNWFQQKAGQPPKRLIYAASNLESGIPARFSGRGSGTDFALNIHPVEEEDAATYYCQQSNEDPYTFGGGTKLEIK
notes: also called combination 15

This assay addresses T1, recombinant human cardiac troponin T (human, UniProt P45379 2-298).
T1 construct: In the ECL assay the cTnT came from the Troponin T hs CalSet calibrator; also called cTnT; TnT
Description: SPR (Biacore T200, 37 C), Fab captured, cTnT analyte. The procedure:
Detailed kinetic investigations were performed at 37° C. on a GE Healthcare T200 instrument. A Biacore CM-5 series S sensor was mounted into the instrument and was preconditioned according to the manufacturer's instructions. The system buffer was HBS-ET (10 mM HEPES (pH 7.4), 150 mM NaCl, 1 mM EDTA, 0.05% (w/v) Tween® 20). The sample buffer was the system buffer supplemented with 1 mg/ml CMD (Carboxymethyldextran, Fluka). In one embodiment an anti-human antibody capture system was established on the CMS biosensor. GAHF(ab′)2, (goat anti human F(ab′)2) (Code Nr.: 109-005-097, lot #13.12.2005, Jackson Immuno Research) was immobilized according to the manufacturer's instructions using NHS/EDC chemistry. 30 μg/ml GAHF(ab′)2 in 10 mM sodium acetate buffer (pH 5.0) were preconcentrated to the flow cells 1, 2, 3 and 4 and were immobilized with 10.000 RU GAHF(ab′)2. The sensor was subsequently saturated with 1 M ethanolamine pH 8.5.
Chimeric anti-TnT antibody fragments were periplasmatically expressed in E. coli cells as described and were lyzed by methods known (for technical details see: Andersen, D. C. & Reilly, D. E. (2004); Production technologies for monoclonal antibodies and their fragments. Curr Opin Biotechnol 15, 456-62). The lysates were diluted 1:20 in sample buffer. Fab fragments were captured via their humanized framework regions from the expression lysates on the biosensor at a flow rate of 10 μl/min for 1 min followed by a 2 min washing step with 10-fold concentrated HBS-EP buffer at 30 μl/min. The Fab fragment capture level (CL) in response units (RU) was monitored. Recombinant human TnT (Roche, 37 kDa) was diluted in sample buffer at 90 nM and a concentration series was produced with […], 30 nM, 11 nM, 3.3 nM, 1.1 nM, 0 nM, 3.3 nM TnT concentration. The analyte concentration series were 80 μl/min for 3 min association phase and the dissociation phase was monitored for 3 min.
The kinetic parameters ka [1/Ms], kd [1/s], t1/2 diss [min], KD [M] and the binding stoichiometry (Molar Ratio) (for details see: Schraeml, M. & Biehl, M. (2012); Kinetic screening in the antibody development process. Methods Mol Biol 901, 171-81.) of the cTnT analyte were determined for each Fab fragment mutant with the Biaevaluation Software (GE healthcare) according to the manufacturer's instructions.
In the case of B1, the Kd came to 580 pM, the “MR (Molar Ratio)” value is 0.6, the koff was 0.0014 s⁻¹ and the kon came to 2.5e+06 M⁻¹ s⁻¹. Also, the t/2-diss amounted to 8 min.

Consider B2, for which the Kd is 1000 pM, the “MR (Molar Ratio)” value is 0.7, the off-rate constant (koff) was determined as 0.0022 s⁻¹ and the kon came to 2.2e+06 M⁻¹ s⁻¹. In addition, the t/2-diss was 5 min.

B3: the Kd turned out to be 620 pM, the “MR (Molar Ratio)” value is 0.7, the koff is 0.0014 s⁻¹ and the kon amounted to 2.3e+06 M⁻¹ s⁻¹. Also, the t/2-diss is 8 min.

For B4, the Kd is 230 pM, the “MR (Molar Ratio)” value amounted to 0.7, the koff was 0.00057 s⁻¹ and the kon worked out at 2.4e+06 M⁻¹ s⁻¹. The t/2-diss came to 20 min.

With B5, the Kd was 620 pM, the “MR (Molar Ratio)” value was 0.7, the koff was 0.0019 s⁻¹ and the kon turned out to be 3e+06 M⁻¹ s⁻¹. The t/2-diss is 6 min.

On to B6, for which the Kd is 450 pM, the “MR (Molar Ratio)” value was determined as 0.7, the koff came to 0.0011 s⁻¹ and the kon was determined as 2.4e+06 M⁻¹ s⁻¹. Further, the t/2-diss was determined as 11 min.

B7: the dissociation constant Kd was found to be 320 pM, the “MR (Molar Ratio)” value turned out to be 0.5, the koff turned out to be 0.00037 s⁻¹ and the kon amounted to 1.18e+06 M⁻¹ s⁻¹. Besides, the t/2-diss came to 31 min.

Take B8: the Kd turned out to be 370 pM, the “MR (Molar Ratio)” value came to 0.7, the koff came out at 0.00079 s⁻¹ and the kon came out at 2.1e+06 M⁻¹ s⁻¹. Also, the t/2-diss worked out at 15 min.

Take B9: the Kd was found to be 460 pM, the “MR (Molar Ratio)” value was 0.7, the koff came out at 0.001 s⁻¹ and the kon came out at 2.2e+06 M⁻¹ s⁻¹. Besides, the t/2-diss is 11 min.

With B10, the Kd is 1200 pM, the “MR (Molar Ratio)” value amounted to 0.7, the koff stood at 0.0023 s⁻¹ and the kon came to 2e+06 M⁻¹ s⁻¹. In addition, the t/2-diss was determined as 5 min.

On to B11, for which the Kd was found to be 200 pM, the “MR (Molar Ratio)” value was found to be 0.7, the koff was determined as 0.00052 s⁻¹ and the kon was found to be 2.7e+06 M⁻¹ s⁻¹. Besides, the t/2-diss was 22 min.

With B12, the Kd turned out to be 270 pM, the “MR (Molar Ratio)” value worked out at 0.7, the koff is 0.00072 s⁻¹ and the kon was 2.7e+06 M⁻¹ s⁻¹. For the same molecule, the t/2-diss worked out at 16 min.

B13: the Kd came out at 1100 pM, the “MR (Molar Ratio)” value amounted to 0.7, the koff came out at 0.0023 s⁻¹ and the kon came to 2.2e+06 M⁻¹ s⁻¹. In addition, the t/2-diss was 5 min.
